According to patent US20190127438A1 (AFFIRIS, published 2019):

B1: protease resistant A43-FceRIa (K43 to A43 variant of recombinant human FceRIa) (receptor)
chain (part 1 of 2): PDGVLAVPQKPKVSLNPPWNRIFAGENVTLTCNGNNFFEVSSTKWFHNGSLSEETNSSLNIVNAKFEDSGEYKCQHQQVNESEPVYLEVFSDWLLLQASAEVVMEGQPLFLRCHGWRNWDVYKVIYYKDGEALKYWYENHNISITNATVEDSGTYYCTGKVWQLDYESEPLNITVIKAPREKYWLQ
chain (part 2 of 2): HHHHHH
notes: also called A43 mutant; protease-resistant variant A43-FceRIa; not shown: spacer
B2: recombinant wild type FceRIa (extracellular region of the alpha chain of the human high-affinity IgE receptor, spacer, 6His) (receptor)
chain: PDGVLAVPQKPKVSLNPPWNRIFKGENVTLTCNGNNFFEVSSTKWFHNGSLSEETNSSLNIVNAKFEDSGEYKCQHQQVNESEPVYLEVFSDWLLLQASAEVVMEGQPLFLRCHGWRNWDVYKVIYYKDGEALKYWYENHNISITNATVEDSGTYYCTGKVWQLDYESEPLNITVIKAPREKYWLQHHHHHH
notes: Peptide K (VPQKPK...) begins at V26, so the secreted protein may begin at residue 26; also called WT-FceRIa; wt-FceRIa; not shown: spacer between FceRIa and 6His

Assays:
[1] = biological target: T1, human IgE (NBS-00911-0-100) (human, UniProt P01854-1 1-428); test: capture ELISA: adsorber on a capturing antibody, 1 µg/ml IgE, anti IgE-HRPO
T1 construct: Bought reagent; also called soluble IgE
T1 sequence (P01854 other isoform, or with tags, fused parts or gaps): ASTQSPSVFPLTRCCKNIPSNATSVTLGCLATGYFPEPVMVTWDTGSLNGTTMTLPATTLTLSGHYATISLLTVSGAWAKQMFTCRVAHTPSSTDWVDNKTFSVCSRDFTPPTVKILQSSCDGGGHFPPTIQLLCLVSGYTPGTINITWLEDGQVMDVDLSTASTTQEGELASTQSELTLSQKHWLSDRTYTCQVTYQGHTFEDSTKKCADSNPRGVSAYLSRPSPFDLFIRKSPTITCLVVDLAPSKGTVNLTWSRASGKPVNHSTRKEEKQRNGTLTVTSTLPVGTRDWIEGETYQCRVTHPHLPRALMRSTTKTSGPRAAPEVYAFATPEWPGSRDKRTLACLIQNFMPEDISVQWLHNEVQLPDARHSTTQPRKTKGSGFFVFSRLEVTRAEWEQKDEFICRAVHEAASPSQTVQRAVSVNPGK
Experimental: Protease resistant A43-FceRIa adsorber has similar affinity, avidity and specificity to IgE when compared to wild type FceRIa or prior art single chain antibody scFv12 (WO 2012/140214 A1) when comparing IgE binding by capture ELISA. Plates were coated with capturing antibody, after blocking HEK cell-purified recombinant protein derived from ScFv12 and FceRIa transfected cells, coated protein was incubated for 1 hour at RT. 1 μg/ml IgE (NBS-00911-0-100), trapped for 1 h/RT and detected for IgE binding using 1 μg/ml anti IgE-HRPO mAB (Novus Biologicals NBP1-74934) for 1 hour at RT.

[2] = biological target: T1, human IgE (NBS-00911-0-100); test: SPR (Biacore 2000, 25 °C), adsorber captured by anti-Tag mAB, IgE 0.5-64 nM as analyte, 1:1 model
Experimental: The surface of a Streptavidine (SA) sensor chip (GE Healthcare Biacore, Cat. Nr. BR-1000-32) was prepared by three injections with 20 μl of 50 mM NaOH following a 200 μl injection of the biotinylated anti-Tag-mAB (Abcam ab10241) diluted to 2 μg/ml in HBS-EP (0.01 M HEPES, 0.15 M NaCl, 3 mM EDTA, 0.005% (v/v) surfactant P20 (pH 7.4) (GE Healthcare Cat. Nr. BR-1001-88) resulting in an immobilization level of ˜2500 RU for capturing on flow cell 4. Free SA-binding sites were saturated by two consecutive 100 μl injections of 1 mM D-Biotin (Sigma #47868). Flow cell 3 was saturated with free D-Biotin and served as reference cell. The capturing level of FceRIa variants and of the ScFv12 required to obtain a maximal response of 100 RU of IgE binding was calculated to be 75 RU and 80 RU, respectively. Therefore FceRIa, A43-FceRIa and scFv12 were diluted in HBS-EP and injected into flow cell 3 and 4 (30 μl/min) until the immobilization level of 90 RU was reached. After a stabilization time of 10 min with injection of running buffer, the final capturing level of 75 and 80 RU respectively were obtained. Finally the individual interactions of FceRIa, A43-FceRIa and scFv12 with IgE (NBS-00911-0-100) diluted in HBS-EP running buffer at 2-fold increasing concentrations (starting concentration, 0.5 nM; maximum concentration, 64 nM) were assessed with an IgE-association phase of 3 min at a flow rate of 30 μl/min. The dissociation phase was investigated by injection of HBS-EP for 30 min at a flow rate of 30 μl/min. The sensor chip surface was regenerated by injecting 15 μl of 10 mM Glycine-HCl pH 1.8 at the same. The dissociation constant (KD-Value), on-rate (ka) and off-rate (kd) were calculated with BIAevaluation 4.1 (GE Healthcare Biacore) using a 1:1 interaction model. All measurements were performed on a Biacore 2000 device at 25° C.

| Binder | EC50 [1] [µg/mL] | Kd [2] [nM] | koff [2] [s⁻¹] | kon [2] [M⁻¹ s⁻¹] |
| --- | --- | --- | --- | --- |
| B1 | 0.0344 | 0.379 | 0.000492 | 1.3e+06 |
| B2 | 0.0245 | 0.473 | 0.00052 | 1.1e+06 |
